These results are taken from article PMC7368010, “Global translation during early development depends on the essential transcription factor PRDM10”.

For data set [1], the target named is T1, GST-PRDM10 441-880 (central zinc finger array) (UniProt Q3UTQ7 441-880).
T1 sequence: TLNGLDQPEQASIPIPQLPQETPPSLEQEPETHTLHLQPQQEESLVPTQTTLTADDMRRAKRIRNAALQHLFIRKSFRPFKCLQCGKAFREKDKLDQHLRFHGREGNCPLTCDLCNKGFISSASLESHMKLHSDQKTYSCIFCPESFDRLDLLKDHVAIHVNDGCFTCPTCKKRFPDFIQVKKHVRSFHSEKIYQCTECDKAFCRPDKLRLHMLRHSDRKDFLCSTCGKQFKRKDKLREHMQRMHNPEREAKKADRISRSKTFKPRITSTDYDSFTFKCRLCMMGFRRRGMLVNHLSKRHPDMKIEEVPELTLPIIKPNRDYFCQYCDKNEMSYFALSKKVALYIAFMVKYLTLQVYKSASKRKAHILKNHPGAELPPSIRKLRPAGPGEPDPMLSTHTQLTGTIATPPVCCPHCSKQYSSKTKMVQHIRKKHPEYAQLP
Kind of data set: competition; EMSA, 20- to 320-fold excess over 10 nM labeled WT probe; 0.4 uM ZnCl2; EMSA: 6 mM HEPES-KOH pH 7.9, 6% glycerol, 100 ug/mL BSA, 0.4 uM ZnCl2, 20 ug/mL poly(dI-dC), room temperature 20 min; 6% native PAGE in 0.25x TBE. The following applies: protein: recombinant; tags: GST; blunt.

The target in data set [2] is T1, GST-PRDM10 441-880 (central zinc finger …). Kind of data set: EMSA; 125-1000 nM protein, 10 nM probe; 0.4 uM ZnCl2; EMSA: 6 mM HEPES-KOH pH 7.9, 6% glycerol, 100 ug/mL BSA, 0.4 uM ZnCl2, 20 ug/mL poly(dI-dC), room temperature 20 min; 6% native PAGE in 0.25x TBE. The settings on record: protein: recombinant; tags: GST; label: 5'-biotin; blunt.

B1: WT unlabeled competitor (dsDNA)
DNA 1: CTGGCACAGTGGTCGCGCCCGGCCCGCC
DNA 2: GGCGGGCCGGGCGCGACCACTGTGCCAG
Regarding B1, the binding result in data set [1] is on record as “binds”.

B2: WT probe (dsDNA)
DNA 1: CTGGCACAGTGGTCGCGCCCGGCCCGCC
DNA 2: GGCGGGCCGGGCGCGACCACTGTGCCAG
As to B2, the binding result in data set [2] is recorded as “binds”.
